From paper PMC4102243, “Rett-causing mutations reveal two domains critical for MeCP2 function and for toxicity in MECP2 duplication syndrome mice”

Molecular target: MeCP2 C-terminal fragment WT (human, UniProt P51608 274-340)
Assay: EMSA; 10 mM Tris-HCl pH 7.4, 50 mM KCl, 0.5 mM MgCl2, 0.1 mM EDTA, 5% glycerol, 0.1 mg/ml BSA, 66.7 nM probe, room temperature 30 min; 1% agarose gel, 1X TAE, 4 C
Conditions: protein: recombinant; tags: N-terminal GST (pGEX-5x3); label: none (ethidium bromide post-stain); blunt

MeCP2 C-terminal fragment WT, sequence (P51608 274-340): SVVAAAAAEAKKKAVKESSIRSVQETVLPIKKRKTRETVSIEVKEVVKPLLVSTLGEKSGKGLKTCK

B1: 64-bp EMSA probe (dsDNA)
DNA 1: GGACTCCAGGTCCAGGACCGCGTTTTTCGCGCGCACGGCGCGGGAGGTCCAGCTGTCCACCTCC
DNA 2: GGAGGTGGACAGCTGGACCTCCCGCGCCGTGCGCGCGAAAAACGCGGTCCTGGACCTGGAGTCC
  binding result: binds
